# Values of other authors, collected in article PMC2666074 (Biochemistry, 2008).
# B1: Siah-1: Siah-1 overexpressed by transient transfection of pSiah-1-FLAG (protein, UniProt Q8IUQ4 1-282, looked up)
# E3 ubiquitin-protein ligase …: MSRQTATALPTGTSKCPPSQRVPALTGTTASNNDLASLFECPVCFDYVLPPILQCQSGHLVCSNCRPKLTCCPTCRGPLGSIRNLAMEKVANSVLFPCKYASSGCEITLPHTEKADHEELCEFRPYSCPCPGASCKWQGSLDAVMPHLMHQHKSITTLQGEDIVFLATDINLPGAVDWVMMQSCFGFHFMLVLEKQEKYDGHQQFFAIVQLIGTRKQAENFAYRLELNGHRRRLTWEATPRSIHEGIATAIMNSDCLVFDTSIAQLFAENGNLGINVTISMC
# modifications: FLAG tag
# Test system: β-catenin in HEK293 cells
# Conditions: no detectable levels of S100A6, ref Matsuzawa and Reed (2001)
molecule,measurement,value
B1,"level of β-catenin upon Siah-1 transfection, in words",reduced levels of β-catenin
